Target: Sso7d(W24A/R43E)-HTLV-1 IN(E156Q) (HTLV-1)
Assay: cryo-EM structure; SEC-purified HTLV-1 intasome (strand-transfer complex) of Sso7d-IN(E156Q), B56γ(11–380) and branched viral U5 LTR/target DNA; 3.7 Å, C2 symmetry imposed

How did the stoichiometry N turn out when “Sso7d(W24A/R43E)-HTLV-1 IN(E156Q) (enzyme)” was run?
Its stoichiometry N is 4.
